Reference: US20240425587A1 (Alector, published 2024)

B1: E1 (antibody, V domains shown)
VH: EVQLVESGGGLVQPGESLKLSCESNEYEFPSHDMSWVRKTPEKRLELVAAINSDGGSTYYPDTMERRFIISRDNTKKTLYLQMSSLRSEDTALYYCARQLMGTGAMDYWGQGTSVTVSS
VL: DIQMTQSSSYLSVSLGGRVTITCKASDHINNWLAWYQQKPGNAPRLLISGATSLETGVPSRFSGSGSGKDYTLSITSLQTEDVATYYCQQYWSTPYTFGGGTKLEIK
notes: second hybridoma campaign
B2: E3 (antibody, V domains shown)
VH: QAYLQQSGAELVRSGASVKMSCKASGNTFTYYNLHWIRQTPGQGLEWIGYIFPGNGDAYYNQNFKGKATLTADTSSSTAYMQISSLTFEDSAVYFCARSPHYYGSGFDYWGQGTPLTVSS
VL: DIQMTQSSSYLSVSLGGGVTITCKASDHINNWLAWYQQKPGNAPRLLISGATSLETGVPSRFSGSGSGKDYTLSITSLQTEDVATYYCQQYWSTPWTFGGGTKLEIK
notes: second hybridoma campaign
B3: E15 (antibody, V domains shown)
VH: QVQLQQSGAELVKPGASVKLSCKASGNTFTIYDINWVRQRPEQGLEWIGWIFPGDGSTKYNGKFKGKATLTTDKSSSTAYMQLSRLTSEDSAVYFCARRAHYYGSSFDYWGQGTTLTVSS
VL: DIQMTQSSSYLSVSLGGRVTITCKASDHINNWLAWYQQKPGNGPRLLISGAISLEIGVPSRFSGSGSGKEYTLSITSLQTEDVATYYCQQYWSPPWTFGGGTKLEIK
notes: B-cell cloning campaign (mice)
B4: E9 (antibody, V domains shown)
VH: QVQLVQSGAEVKKPGASVKVSCKASGGTFSSYSINWVRQAPGQGLEWMGWINPHSGATKYAERFQGRVTMTRDTSTSTVYMELSSLRSEDTAVYYCASAEEPYDILTGYYGGDAFDIWGQGTMVTVSS
VL: DIQMTQSPSSLSASVGDRVTITCRASQSISKYLNWYQQKPGKAPKLLIYDASNLQAGVPSRFSGSGSGTDFTLTISSLQPEDFATYYCQQANSFPYTFGQGTKLEIK
notes: phage campaign
B5: E6 (antibody, V domains shown)
VH: QVQLVQSGAEVKKPGASVKVSCKASGGTFSSYAISWVRQAPGQGLEWMGWINPNSGGTNFAQKFQGRVTMTRDTSTSTVYMELSSLRSEDTAVYYCARGSGSYPLDYWGRGTLVTVSS
VL: DIQMTQSPSSLSASVGDRVTITCRASQDISTWLAWYQQKPGKAPKLLIYDASSLESGVPSRFSGSGSGTDFTLTISSLQPEDFATYYCQQTYSAPYTFGQGTKLEIK
notes: phage campaign
B6: E11 (antibody, V domains shown)
VH: QVQLVQSGAEVKKPGSSVKVSCKASGGTFSSYDISWVRQAPGQGLEWMGGIIPTFVTPKYAQKFQGRVTITADESTSTAYMELSSLRSEDTAVYYCAREGPKQLEEYYYYYMDVWGKGTTVTVSS
VL: DIQMTQSPSSLSASVGDRVTITCRATQAISNSLAWYQQKPGKAPKLLIYAASYLQSGVPSRFSGSGSGTDFTLTISSLQPEDFATYYCQQAYSFPWTFGQGTKLEIK
notes: phage campaign
B7: E10 (antibody, V domains shown)
VH: EVQLLESGGGLVKPGGSLRLSCAASGFTFSNYAMSWVRQAPGKGLEWVAVIYSGADTYYADSVKGRFTISRDDSKNTLYLQMNSLKTEDTAVYYCTRDIGLNYGDYELFDYWGQGTLVTVSS
VL: DIVMTQSPLSLPVTPGEPASISCRSSQSLLHSNGYNYLDWYLQKPGQSPQLLIYDASNLETGVPDRFSGSGSGTDFTLKISRVEAEDVGVYYCMQGLQTPYVFGQGTKLEIK
notes: phage campaign
B8: A11 (antibody, V domains shown)
VH: QVQLVQSGAEVKKPGASVKVSCKASGYTFTSYYMHWVRQAPGQGLEWMGWINPNNGDTNYAQKFQGRVTMTRDTSTSTVYMELSSLRSEDTAVYYCARAGYFDWLLDYYGMDVWGQGTTVTVSS
VL: DIVMTQSPLSLPVTPGEPASISCRSSQSLLHSNGYNYLDWYLQKPGQSPQLLIYDASNLETGVPDRFSGSGSGTDFTLKISRVEAEDVGVYYCMQALQTPFGPGTKVDIK
notes: phage campaign; same VH/VL as E17
B9: E16 (antibody, V domains shown)
VH: QVQLKESGPGLVAPSQSLSITCTVSGFSLSGYGVNWVRHLPGKGLEWLGMIWGDGHTDYNSALKSRLSISKDNSKSQVFLKMNSLQTDDTARYYCARDPRFYYGSGPYWYFDVWGAGTTVTVSS
VL: DIVMTQSQKFMSTSVGDRVNITCKASQNVGTAVAWYQQKPGQSPKLLIYSASNRYTGVPDRFTGSGSGTDFTLTISNMQSEDLADYFCQQYSSYPLTFAVGTKLELK
notes: as for B3
B10: E8 (antibody, V domains shown)
VH: QVQLVQSGAEVKKPGASVKVSCKASGYAFTNYDINWVRQAPGQGLEWLGWINPYSGDTNYAQKLQGRVTMTRDTSTSTVYMELSSLRSEDTAVYYCTIPSSYGEYYYYYMDVWGKGTTVTVSS
VL: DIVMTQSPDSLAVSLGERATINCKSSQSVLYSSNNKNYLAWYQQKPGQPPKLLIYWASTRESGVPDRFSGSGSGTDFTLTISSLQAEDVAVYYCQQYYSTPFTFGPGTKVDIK
notes: phage campaign
B11: E19 (antibody, V domains shown)
VH: QVQLVQSGAEVKKPGSSVKVSCKASGYLFSDYAMNWVRQAPGQGLEWVGWIIPNSGGTKFAQTFQGRVTITADESTSTAYMELSSLRSEDTAVYYCAREHGVVPADHYYYGMDVWGQGTTVTVSS
VL: EIVMTQSPATLSVSPGERATLSCRASQSISSSYLAWYQQKPGQAPRLLIYGASTRATGIPARFSGSGSGTEFTLTISSLQSEDFAVYYCQQYGRFPWTFGQGTKVEIK
notes: phage campaign; same VH/VL as A13
B12: E7 (antibody, V domains shown)
VH: EVQLLESGGGLVKPGGSLRLSCAASGFTFSSYWMSWVRQAPGKGLEWVSAISGSGGSTYYADSVKGRFTISRDDSKNTLYLQMNSLKTEDTAVYYCARHEEVTMVRGVIFAGGITNWGQGTTVTVSS
VL: EIVMTQSPATLSVSPGERATLSCRASESVTSSYLAWYQQKPGQAPRLLIYGASTRATGIPARFSGSGSGTEFTLTISSLQSEDFAVYYCQQYGSSPLTFGGGTKVEIK
notes: phage campaign
B13: A13 (antibody, V domains shown)
VH: QVQLVQSGAEVKKPGSSVKVSCKASGYLFSDYAMNWVRQAPGQGLEWVGWIIPNSGGTKFAQTFQGRVTITADESTSTAYMELSSLRSEDTAVYYCAREHGVVPADHYYYGMDVWGQGTTVTVSS
VL: EIVMTQSPATLSVSPGERATLSCRASQSISSSYLAWYQQKPGQAPRLLIYGASTRATGIPARFSGSGSGTEFTLTISSLQSEDFAVYYCQQYGRFPWTFGQGTKVEIK
notes: phage campaign; same VH/VL as E19
B14: E2 (antibody, V domains shown)
VH: EVQLQESGPSLVKPSQTLSLTCSVTGDSITSGYWNWIRKFPGDKLEYMGYISYTGTTYYNPSLKSRVSITRDTSKNQYYLQLHSVTTEDTATYYCARYPYGNFPFDYWGQGTTLTVSS
VL: SIVMTQTPKFLLVSAGDRVTITCKASQSVRNDVAWYQQRPGQSPKLLIFYASSRYIGAPDRFTGSGYGTDFTFTISTVQAEDLAVYFCQQDYSSPYTFGGGTTLEIK
notes: second hybridoma campaign
B15: E14 (antibody, V domains shown)
VH: QVQLVQSGAEVKKPGSSVKVSCKASGYTFTNYDINWVRQAPGQGLEWMGGIIPIFGTANYAQKFQGRVTITADESTSTAYMELSSLRSEDTAVYYCTNGVGAGWFDLWGRGTLVTVSS
VL: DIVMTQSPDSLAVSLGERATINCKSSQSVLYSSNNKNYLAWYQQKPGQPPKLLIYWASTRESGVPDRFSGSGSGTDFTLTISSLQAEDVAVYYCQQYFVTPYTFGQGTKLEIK
notes: phage campaign

Legend:
[1] = biological target: T1, human PILRA, G78 variant, ectopically expressed on 293 cells (human, UniProt Q9UKJ1 20-303); test: flow cytometry, 293 cells expressing target
T1 construct: the cells are labelled G78; also called hA G78 OE; hA
T1 sequence (Q9UKJ1 other isoform, or with tags, fused parts or gaps mutant): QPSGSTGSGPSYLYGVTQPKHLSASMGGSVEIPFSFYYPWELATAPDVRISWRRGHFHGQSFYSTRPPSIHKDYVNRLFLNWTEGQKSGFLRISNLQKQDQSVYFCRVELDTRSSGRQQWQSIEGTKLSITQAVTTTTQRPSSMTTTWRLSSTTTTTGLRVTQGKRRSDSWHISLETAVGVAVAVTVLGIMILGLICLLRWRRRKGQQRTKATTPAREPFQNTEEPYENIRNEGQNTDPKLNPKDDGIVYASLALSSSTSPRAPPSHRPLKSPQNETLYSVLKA
Procedure: (§1) Briefly, conditioned media containing antibodies were incubated with 293 cells for 30 min at 4° C., washed twice, and then detected with anti-mouse IgG Alexa 647.

[2] = biological target: T2, human PILRB, ectopically expressed on 293 cells (human, UniProt Q9UKJ0 20-227); test: flow cytometry, 293 cells expressing target
T2 construct: also called hB
T2 sequence (Q9UKJ0 20-227): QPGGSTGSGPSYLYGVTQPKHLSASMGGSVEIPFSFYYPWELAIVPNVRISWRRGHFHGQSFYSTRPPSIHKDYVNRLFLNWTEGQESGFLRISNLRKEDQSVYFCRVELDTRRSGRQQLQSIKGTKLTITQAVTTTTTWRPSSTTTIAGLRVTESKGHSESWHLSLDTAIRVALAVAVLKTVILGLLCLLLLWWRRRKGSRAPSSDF
Procedure: as §1

[3] = biological target: cynomolgus PILRA, ectopically expressed on 293 cells (cynomolgus monkey); test: flow cytometry, 293 cells expressing target
Sequence of cynomolgus PILRA, ectopically expressed on 293 cells (cynomolgus monkey) (chain, as listed by the source): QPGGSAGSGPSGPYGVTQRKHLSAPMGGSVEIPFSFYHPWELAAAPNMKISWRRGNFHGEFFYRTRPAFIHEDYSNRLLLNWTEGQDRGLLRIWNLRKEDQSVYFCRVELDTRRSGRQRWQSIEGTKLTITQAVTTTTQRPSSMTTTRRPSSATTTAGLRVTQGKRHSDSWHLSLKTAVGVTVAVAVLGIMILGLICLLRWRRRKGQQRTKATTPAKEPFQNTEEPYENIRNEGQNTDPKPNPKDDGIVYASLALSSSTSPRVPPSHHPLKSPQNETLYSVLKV
Procedure: as §1

[4] = biological target: T3, murine PILRA, ectopically expressed on 293 cells (murine, UniProt Q2YFS3 32-302); test: flow cytometry, 293 cells expressing target
T3 construct: also called mA
T3 sequence (Q2YFS3 32-302): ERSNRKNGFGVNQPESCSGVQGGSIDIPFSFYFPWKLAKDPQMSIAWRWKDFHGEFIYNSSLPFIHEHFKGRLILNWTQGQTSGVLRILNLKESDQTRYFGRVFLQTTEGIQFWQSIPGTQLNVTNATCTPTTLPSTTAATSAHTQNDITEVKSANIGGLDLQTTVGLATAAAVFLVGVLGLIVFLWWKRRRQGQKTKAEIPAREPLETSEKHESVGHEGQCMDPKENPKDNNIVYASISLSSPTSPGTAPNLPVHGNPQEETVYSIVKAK
Procedure: as §1

[5] = biological target: T4, murine PILRB, ectopically expressed on 293 cells (murine, UniProt Q2YFS2 29-224); test: flow cytometry, 293 cells expressing target
T4 construct: whole, on cells; also called mB
T4 sequence (Q2YFS2 29-224): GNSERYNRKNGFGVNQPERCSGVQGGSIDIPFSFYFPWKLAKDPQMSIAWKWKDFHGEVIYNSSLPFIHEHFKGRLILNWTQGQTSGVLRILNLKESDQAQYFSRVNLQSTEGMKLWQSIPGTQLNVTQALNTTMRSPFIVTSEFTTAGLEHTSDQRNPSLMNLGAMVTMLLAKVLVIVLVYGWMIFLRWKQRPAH
Procedure: as §1

[6] = biological target: T5, human PILRA, c-term His-Avi tag (human, UniProt Q9UKJ1 20-197, limits assumed); test: SPR (Biacore), antibody captured, PILRA as analyte
T5 construct: not shown: C-terminal His-Avi tag
T5 sequence (Q9UKJ1 20-197 limits assumed): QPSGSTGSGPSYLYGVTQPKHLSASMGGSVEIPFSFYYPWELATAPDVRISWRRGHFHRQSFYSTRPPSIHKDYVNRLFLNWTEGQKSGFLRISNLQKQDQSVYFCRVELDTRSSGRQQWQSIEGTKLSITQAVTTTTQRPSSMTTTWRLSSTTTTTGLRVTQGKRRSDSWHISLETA
Procedure: Experiments were performed to determine the kinetics of anti-PILRA antibody binding to human […]. The assay is depicted in FIG. 6. A rabbit anti-PILRA was used as a positive control, and H1 LALAPS was used as a negative control. Human PILRA (human PILRA, c-term His-Avi tag, 0.68 mg/mi) was used as the antigen. The running buffer was HBSTE/0.5% BSA, pH 7.4, and the regeneration solution was 10 mM glycine-HCl (pH 2.1). In the assay, antibodies were captured at 10 μg/ml by immobilized anti-huFc or anti-msFc on a Biacore CM5 chip, and human PILRA flowed at 33, 100, and 300 nM. The surface was regenerated after each analyte, and all curves were double-referenced with buffer injections.

Binder | EC50 [1] | binding result [2] | binding result [3] | binding result [4] | binding result [5] | EC50 [2] | EC50 [3] | Kd [6] | koff [6] | kon [6] | t½ [6]
B1 | 40.4 µg/mL | no binding | no binding | no binding | no binding |  |  |  |  |  | 
B2 | 0.22 µg/mL |  |  | no binding | no binding | 0.78 µg/mL | 0.15 µg/mL |  |  |  | 
B3 | 4.73 µg/mL |  |  | no binding | no binding | 16.4 µg/mL | 14.6 µg/mL | 31.3 nM | 0.0017 s⁻¹ | 53000 M⁻¹ s⁻¹ | 6.9 min
B4 | 1.2 µg/mL | no binding | no binding | no binding | no binding |  |  |  |  |  | 
B5 |  | no binding | no binding | no binding | no binding |  |  |  |  |  | 
B6 | 0.2 µg/mL |  | no binding | no binding | no binding | 5.9 µg/mL |  |  |  |  | 
B7 | 0.1 µg/mL | no binding | no binding | no binding | no binding |  |  | 14.5 nM | 0.0016 s⁻¹ | 110000 M⁻¹ s⁻¹ | 
B8 | 0.6 µg/mL |  |  |  |  | 1.1 µg/mL | 10.8 µg/mL | 14.4 nM | 0.0014 s⁻¹ | 96000 M⁻¹ s⁻¹ | 
B9 |  |  |  | no binding | no binding | 3.1 µg/mL |  |  |  |  | 
B10 | 0.4 µg/mL |  | no binding | no binding | no binding | 2.9 µg/mL |  |  |  |  | 
B11 |  |  |  |  |  |  |  | 86.1 nM | 0.009 s⁻¹ | 100000 M⁻¹ s⁻¹ | 
B12 |  | no binding | no binding | no binding | no binding |  |  |  |  |  | 
B13 | 0.8 µg/mL |  |  | no binding | no binding | 6.2 µg/mL | 0.8 µg/mL |  |  |  | 
B14 | 0.4 µg/mL |  |  | no binding | no binding | 2.9 µg/mL | 92 µg/mL |  |  |  | 
B15 | 0.4 µg/mL | no binding |  | no binding | no binding |  | 0.6 µg/mL |  |  |  | 
